The values below come from US20150111231A1 (SHIONOGI, published 2015).

Groups on a side chain read outwards from the residue. Primed or numbered codes have the meaning given here. No end group written: not given here. *: point of attachment. Biotin = O=C1N[C@H]2[C@H](CS[C@H]2CCCCC(=O)*)N1; PEG2′ = not defined here

The labels stand for the following.
B1: anti-neoepitope antibody 4G4 (antibody, IgG2a, V domains shown)
VH: EMKLVESGGGLVEPGGSLKLSCAASGFTFSNYAMSWVRQTPDKRLEWVASIGRGGSTFYPDSVKGRFTISRDRVRNILYLQMNSLRSEDTAIYYCRVIYSQSISFDYWGQGTTLTVSS
VL: not shown
notes: It was biotinylated when used as capture antibody in the sandwich ELISA; also called anti-sAPP β monoclonal antibody (4G4)
B4: biotinylated N-terminal cysteine-containing neoepitope peptide (peptide)
peptide: C([Maleimide-PEG2′-Biotin])TEEISEVKM
notes: also called biotinylated peptide; biotynylated peptide

The target in test [1] is B4. Description: screening ELISA: hybridoma supernatant on anti-mouse IgG plate, biotinylated peptide and streptavidin-HRP. On the technique in general: In an ELISA, binding on a coated surface is turned into a signal by an enzyme label.
Test [2] concerns the target T1, anti-internal structure antibody 5H10.
T1 construct: also called internal antibody 5H10; internal structural antibody
Description: competitive ELISA of 5H10, unlabelled peptide varied against the biotinylated internal structural peptide. The method, then:
Reactivity of the antibody, 5H10 to the four fragment peptides 1˜4 (SEQ ID No.: 8, 9, 10, 11) was evaluated by competitive ELISA in the same method as Example 1.

The target in test [3] is B1. Description: competitive ELISA: 4G4 captured on anti-mouse IgG plate, unlabelled immunogen peptide (SEQ ID No. 2) varied against the biotinylated neoepitope peptide with streptavidin-HRP. The method, then:
10 μl of the antibody solution containing 4G4 and 10 μl of the immunogen peptide (SEQ ID No.:2) or the long peptide ([…] SEQ ID No. 3 SIGMA) or human sAPPβ (MESO SCALE DISCOVERY) or human sAPPα (MESO SCALE DISCOVERY) and 10 μl of 0.04 ng the biotynylated peptide and 2 ng streptavidin-HRP in buffer A were placed into the above anti-mouse IgG-immobilized plates and incubated overnight at 4° C. The plates were washed three times and 25 μl of TMB substrate solution (DAKO) was added and incubated for 30 min. The reaction was finally stopped by addition of 25 μl of 0.05NH2SO4, and optical absorbance was measured at wavelength of 450 nm (FIG. 3).

T1 sequence (VH, as listed by the source, chain 1 of 2): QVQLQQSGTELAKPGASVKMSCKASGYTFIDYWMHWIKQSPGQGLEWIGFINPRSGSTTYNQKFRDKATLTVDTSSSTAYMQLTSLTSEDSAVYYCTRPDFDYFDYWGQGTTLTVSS
T1 sequence (VL, as listed by the source, chain 2 of 2): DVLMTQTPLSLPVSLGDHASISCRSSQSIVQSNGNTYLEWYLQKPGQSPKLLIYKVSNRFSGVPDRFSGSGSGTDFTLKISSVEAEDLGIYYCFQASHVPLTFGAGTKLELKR

As to B1, the binding result in test [1] is “binds”.

B2: Fragment 3 (peptide)
peptide: RPAADRGLTTRP
notes: partial peptide of the 5H10 immunogen; also called fragment peptide 3
On to B2, for which the binding result in test [2] is “no binding (tested: about 150 nM)”.

B3: Fragment 1 (peptide)
peptide: DSVPANTENEVE
notes: partial peptide of the 5H10 immunogen; also called fragment peptide 1
On to B3, for which the binding result in test [2] is reported as “no binding (tested: about 150 nM)”.

Turning to B4, the binding result in test [3] is listed as “binds”.

B5: Immunogen peptide (peptide)
peptide: DSVPANTENEVEPVDARPAADRGLTTRPGSGLTNC
notes: also called C-terminal cysteine-containing internal structural peptide; Immunogen 2 peptide
With B5, the binding result in test [2] was “binds”.

B6: Fragment 2 (peptide)
peptide: NEVEPVDARPAA
notes: partial peptide of the 5H10 immunogen; also called fragment peptide 2
For the molecule B6, the binding result in test [2] is reported as “no binding (tested: about 150 nM)”.
